Assay results taken from patent US20220282255A1.

Target: Recombinant Human TGF-β1, manufactured by Peprotech (human) (UniProt P01137)
Test: cell-based or functional assay

Sequence of Recombinant Human TGF-β1, manufactured by Peprotech (human) (P01137 279-390 limits assumed): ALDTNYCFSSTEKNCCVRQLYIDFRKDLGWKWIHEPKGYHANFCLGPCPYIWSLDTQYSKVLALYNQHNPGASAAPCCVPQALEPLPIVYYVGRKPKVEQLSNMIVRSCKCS

cell (luciferase assay inhibitory rate (%)): 100%
Substance: known TGF-β antibody (R&D, MAB1835)
